{
  "source": "paper PMC4833211",
  "target": "KirBac1.1 WT",
  "assay": "SEC",
  "data": [
    {"substance": "KirBac1.1 WT (natural protein)", "values": [
      {"measurement": "stoichiometry N", "value": 4}
    ]}
  ]
}
